The results in this text go back to US5985630A, “Assay for detecting inhibitors of aminoacyl-tRNA synthetases” (Zeneca Limited, priority 1993, dated 1999).

Type in all cases: biochemical, E. coli
Series [1] has as its system T1, Nc1ncnc2c1ncn2[C@@H]1O[C@H](COP(=O)(O)OP(=O)(O)OP(=O)(O)O)[C@@H](O)[C@H]1O.
T1 construct: endogenous in cells; enzyme partially purified in house
As to the kind of experiment: Colorimetric assay based on valine as substrate (valine-based assay of the invention). As to conditions: other: colorimetric assay; pH 7.4; 37.0 °C. The procedure: (§1) 2. Measurement of ITRS activity using a Colorimetric Assay based on using Valine as Substrate
(§2) Incubations were set up in quadruplicate (as above) with a final volume of 200 μl as described below. Stock reagents used in the method were as follows:
(§3) Prepared as described above. The specific activity of the enzyme used in the present example was approximately 145 nM of product formed/minute/mg, and was about 5%-10% active. The enzyme was diluted as appropriate. It will be appreciated that the enzyme amounts in the assay can be adjusted according to the purity of the enzyme used.
(§4) The assay mixture for a final volume of 200 μl was composed of:
(§5) The standard assay (in 200 μl) was carried out in quadruplicate in Eppendorf microcentrifuge tubes. The ingredients were pre-incubated for 2-3 minutes at 37° C. and the reaction started by addition of 20 μl of appropriately diluted enzyme extract (as described above).
(§6) Thus the final reaction contained reagents in the following concentrations:
(§7) 0.12 mg of mixed tRNA species from E. coli (as described above) HPLC purified from […] available from by Sigma (UK) Ltd 1 unit/μl of inorganic pyrophosphatase and
(§8) an appropriate concentration of ITRS (for example […] of the enzyme as described above).
(§9) The samples were incubated at 37° C. for 20-60 minutes. […] The optical absorbance is then measured at a wavelength of 630 nm using a spectrophotometer.

For the next series, the system named is T2, CC(C)[C@H](N)C(=O)O.
T2 construct: endogenous in cells; enzyme partially purified in house
Described as above. Conditions: other: non-cognate amino acid substrate of ITRS; pH 7.4; 37.0 °C. On the procedure: as §1, §2, §3, §4, §5, §6, §7, §8, §9

In series [2] the test system is T1, Nc1ncnc2c1ncn2[C@@H]1O[C@H](COP(=O)(O)OP(=O)(O)OP(=O)(O)O)[C@@H](O)[C@H]1O. As to the kind of experiment: 3H-isoleucine-based radiolabelled (standard radiometric) assay. As to conditions: other: 3H-Ile assay; pH 7.4; 37.0 °C. On the procedure: (§10) 2. Measurement of ITRS Activity using a ^3 H-Isoleucine-Based Radiolabelled Assay
(§11) The activity of ITRS during fractionation was monitored using conditions based on the method described by Steinmetz and Weil (7), and as described below. Stock reagents used in the method are as follows:
as §3, §4
(§12) The standard assay (in 200 μl) was carried out in quadruplicate in Eppendorf microcentrifuge tubes. The ingredients were preincubated for 2-3 minutes at 37° C., and the reaction started by addition of approximately 20 μl of the appropriately diluted enzyme extract as described above.
(§13) The final reaction contained reagents in the following concentrations:
(§14) 0.1% bovine serum albumin […]
(§15) 200 μl of the reaction mixture was pipetted onto 1.5 cm^2 cellulose 3MM filters. […] The dried filters were placed in 20 ml scintillation vials and the radioactivity counted in 15 ml Optiphase.
(§16) The inhibition constants of two compounds were measured and the results compared with the values obtained using the standard ^3 H-isoleucine assay.

For a further series, the system named is T3, CC[C@H](C)[C@H](N)C(=O)O.
T3 construct: endogenous in cells; enzyme partially purified in house
Described as above. Conditions: other: 3H-Ile assay; pH 7.4; 37.0 °C. The procedure: as §10, §11, §3, §4, §12, §13, §14, §15, §16

As usually defined, the Km is the concentration of substrate that gives half-maximal velocity.

Take “E. coli ITRS (isoleucyl-tRNA synthetase) (Escherichia coli K-12)”: the Km in series [1] is 48 µM; in the series on CC(C)[C@H](N)C(=O)O, 500 µM; in series [2] it was 47 µM; with CC[C@H](C)[C@H](N)C(=O)O it was 4.3 µM.
